Laboratory results from US20120003670A1 (BLOOD CENTER RESEARCH FOUNDATION, published 2012).
Positions count from the first letter of the chain named. In names and notes the source's numbering stands.

B1: wild-type GPIbα (SEQ ID NO:11), full-length, on transfected HEK-293T cells (receptor)
chain: HPICEVSKVASHLEVNCDKRNLTALPPDLPKDTTILHLSENLLYTFSLATLMPYTRLTQLNLDRCELTKLQVDGTLPVLGTLDLSHNQLQSLPLLGQTLPALTVLDVSFNRLTSLPLGALRGLGELQELYLKGNELKTLPPGLLTPTPKLEKLSLANNNLTELPAGLLNGLENLDTLLLQENSLYTIPKGFFGSHLLPFAFLHGNPWLCNCEILYFRRWLQDNAENVYVWKQGVDVKAMTSNVASVQCDNSDKFPVYKYPGKGCPTLGDEGDTDLYDYYPEEDTEGDKVRATRTVVKFPTKAHTTPWGLFYSWSTASLDSQMPSSLHPTQESTKEQTTFPPRWTPNFTLHMESITFSKTPKSTTEPTPSPTTSEPVPEPAPNMTTLEPTPSPTTPEPTSEPAPSPTTPEPTSEPAPSPTTPEPTPIPTIATSPTILVSATSLITPKSTFLTTTKPVSLLESTKKTIPELDQPPKLRGVLQGHLESSRNDPFLHPDFCCLLPLGFYVLGLFWLLFASVVLILLLSWVGHVKPQALDSGQGAALTTATQTTHLELQRGRQVTVPRAWLLFLRGSLPTFRSSLFLWVRPNGRVGPLVAGRRPSALSQGRGQDLLSTVSIRYSGHSL
notes: also called wild-type control
B2: GPIbα D235Y, full-length, on transfected HEK-293T cells (receptor)
chain: B1 chain with D235Y
notes: Some cells were also transfected with GPIbβ and GP-IX; also called single mutation D235Y
B3: GPIbα D235Y/M239V, full-length, on transfected HEK-293T cells (receptor)
chain: B1 chain with D235Y, M239V
notes: Some cells were also transfected with GPIbβ and GP-IX; also called double mutation D235Y/M239V
B4: GPIbα G233V/M239V, full-length, on transfected HEK-293T cells (GPIbα alone in Table 2) (receptor)
chain: B1 chain with G233V, M239V
notes: also called double mutation G233V/M239V
B5: GPIbα G233V/D235Y, full-length, on transfected HEK-293T cells (receptor)
chain: B1 chain with G233V, D235Y
notes: Some cells were also transfected with GPIbβ and GP-IX; also called double mutation G233V/D235Y
B6: GPIbα G233V, full-length, on transfected HEK-293T cells (receptor)
chain: B1 chain with G233V
notes: Some cells were also transfected with GPIbβ and GP-IX; also called single mutation G233V
B7: GPIbα M239V, full-length, on transfected HEK-293T cells (receptor)
chain: B1 chain with M239V
notes: Some cells were also transfected with GPIbβ and GP-IX; also called single mutation M239V
B8: GPIbα G233V/D235Y/M239V, full-length, on transfected HEK-293T cells (receptor)
chain: B1 chain with G233V, D235Y, M239V
notes: Some cells were also transfected with GPIbβ and GP-IX; also called triple mutation; triple GPIbα mutation

biological target: T1, von Willebrand factor (VWF) in plasma of reference standards, controls and normal individuals (human, UniProt P04275 764-2813); experiment: FACS on transfected HEK-293T cells, with ristocetin or botrocetin
T1 construct: In the assays VWF was the multimeric protein in diluted platelet poor plasma; also called PPP (source of VWF); ISTH 2
Procedure: (§1) For FACS, about 50 μl of a 1:10 dilution of platelet poor plasma (PPP; source of VWF) in assay buffer was added to the plate and serially diluted 1:2 to final dilution of 1:80. ISTH Lot #3 (GTI; Milwaukee, Wis.) was used as a standard and diluted 1:10 in assay buffer and serially diluted 1:2 to a final dilution of 1:320. The plate was then incubated for one hour at room temperature. After the one-hour incubation, the plate was centrifuged again at 1200 rpm for 5 minutes and the supernatant was discarded.
(§2) In some experiments, the PPP was diluted in PBS containing 1% BSA and either 1 mg/ml Ristocetin A (American Biochemical & Pharmaceuticals, Ltd.; Marlton, N.J.) or 1 mg/ml Botrocetin (Sigma Aldrich).
Fluorescently labeled antibodies (anti-GPIbα; Blood Research Institute) were diluted to a final concentration of 5 μg/ml in assay buffer. Fluorescently labeled anti-VWF polyclonal was also was diluted to a final concentration of 5 μg/ml in assay buffer and added to transfected cells incubated in PPP. Normal rabbit IgG (NRIgG; Pierce) and AP-1 were added at a concentration of 5 μg/ml to transfected cells as negative and positive controls, respectively. The plate was then incubated in the dark for one hour at room temperature. Assay buffer was added to each well to bring the final volume to 150 μl, and FACS was performed using a BD LSRII System (Becton Dickinson). […]

Row | binding result | Binder
1 | binds | B1

biological target: T1, von Willebrand factor (VWF) in plasma …; experiment: FACS on transfected HEK-293T cells, ristocetin titration
Procedure: as §1, §2
Fluorescently labeled antibodies (anti-GPIbα; Blood Research Institute) were diluted to a final concentration of 5 μg/ml in assay buffer. Fluorescently labeled anti-VWF polyclonal was also was diluted to a final concentration of 5 μg/ml in assay buffer and added to transfected cells incubated in PPP. Normal rabbit IgG (NRIgG; Pierce) and AP-1 were added at a concentration of 5 μg/ml to transfected cells as negative and positive controls, respectively. The plate was then incubated in the dark for one hour at room temperature. Assay buffer was added to each well to bring the final volume to 150 μl, and FACS was performed using a BD LSRII System (Becton Dickinson). Results are shown in VWF:IbCo units.

Row | binding result | Binder
2 | binds | B2
3 | binds | B3
4 | binds | B4
5 | binds | B5
6 | binds | B6
7 | binds | B7
8 | binds | B8
